One assay concerns the target TLR5 on HCT116 cells (UniProt O60602). The assay is described as follows: cell-based or functional assay.
The target of assay [1] is T1, Human 4Ig-B7-H3 extracellular domain (human, UniProt Q5ZPR3 29-466).
T1 construct: extracellular domain
T1 sequence (looked up): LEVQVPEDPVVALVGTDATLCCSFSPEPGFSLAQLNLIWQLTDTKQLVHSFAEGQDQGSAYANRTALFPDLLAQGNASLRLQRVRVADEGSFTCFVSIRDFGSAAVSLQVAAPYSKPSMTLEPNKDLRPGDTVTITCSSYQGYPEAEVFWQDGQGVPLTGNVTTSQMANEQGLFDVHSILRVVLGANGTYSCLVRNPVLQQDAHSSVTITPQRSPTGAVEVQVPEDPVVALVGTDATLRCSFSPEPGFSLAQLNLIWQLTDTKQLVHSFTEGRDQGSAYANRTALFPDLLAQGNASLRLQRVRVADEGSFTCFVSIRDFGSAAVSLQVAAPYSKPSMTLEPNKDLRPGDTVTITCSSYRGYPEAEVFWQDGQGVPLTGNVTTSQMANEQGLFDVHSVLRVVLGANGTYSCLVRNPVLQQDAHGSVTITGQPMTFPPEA
The assay is described as follows: biolayer interferometry (Octet), comparison of Kd values of Table 6. In general terms: In BLI a coated tip is dipped into the sample, and binding shifts an interference pattern.
Source text: (§1) The extracellular domains of the indicated B7 family proteins were purchased from R&D Systems. All proteins were validated by the vendor to be both pure and functional.

The target of assay [2] is T2, Mouse 2Ig-B7-H3 extracellular domain (mouse, UniProt Q8VE98 29-248).
T2 construct: extracellular domain; Purchased recombinant extracellular domain; also called murine 2Ig-B7-H3
T2 sequence (looked up): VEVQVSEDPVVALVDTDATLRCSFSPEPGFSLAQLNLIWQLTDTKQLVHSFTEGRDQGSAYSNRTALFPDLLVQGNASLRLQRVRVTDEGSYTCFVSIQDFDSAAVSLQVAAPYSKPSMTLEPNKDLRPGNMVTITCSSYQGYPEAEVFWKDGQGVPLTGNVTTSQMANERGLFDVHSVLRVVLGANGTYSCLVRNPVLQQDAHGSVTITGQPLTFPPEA
The assay is described as follows: ratio of Kd values, told as the reason for using 100 ug/mL MIL33B-A594 on Pan02 cells.

Assay [3] has as its target T1, Human 4Ig-B7-H3 extracellular domain. Put plainly: ELISA, extracellular domain plated on 96-well plates, MIL33B titrated, absorbance read. A general note: ELISA stands for enzyme-linked immunosorbent assay.
Source text: The extracellular domains of human 4Ig-B7-H3 and murine 2Ig-B7-H3 were purchased and plated down onto 96-well plates. […] Plates were then washed and assessed for antibody binding through absorbance measurements.
Assay [4] concerns the target T3, Human 2Ig-B7-H3 extracellular domain (human, UniProt Q5ZPR3 29-466).
T3 chain: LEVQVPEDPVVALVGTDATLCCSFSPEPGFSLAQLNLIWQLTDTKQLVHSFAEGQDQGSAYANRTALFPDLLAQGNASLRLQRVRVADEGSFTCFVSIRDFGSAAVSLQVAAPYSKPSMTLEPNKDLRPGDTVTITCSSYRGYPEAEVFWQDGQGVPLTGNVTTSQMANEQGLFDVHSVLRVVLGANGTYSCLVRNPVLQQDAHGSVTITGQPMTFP
The assay is described as follows: biolayer interferometry (Octet), MIL33B captured on the probe, extracellular domain in solution.
Procedure: (§2) Dissociation constants, Kd, were determined utilizing biolayer interferometry (Octet) assays. […] The surface is then placed into a solution of analyte and the phase shift indicating binding was measured over time. The probe was then moved into a solution without analyte and the time course of off-binding was measured. This cycle was repeated for multiple analyte concentrations, and the Kd was calculated from global curve fitting of the concentration- and time-dependence of the analyte binding to the antibody.
as §1

The target in assay [5] is T1, Human 4Ig-B7-H3 extracellular domain. The description is as above.
Procedure: as §2, §1
The target in assay [6] is T2, Mouse 2Ig-B7-H3 extracellular domain. The description is as above.
Procedure: as §2, §1
Assay [7] has as its target T1, Human 4Ig-B7-H3 extracellular domain. Put plainly: ELISA.
Assay [8] has as its target T4, Human 4Ig-B7-H3 expressed on cells (human, UniProt Q5ZPR3 29-534).
T4 construct: whole, on cells; also called native 4Ig-B7-H3 on HeLa and HCT116 cells; human 4Ig-B7-H3 on transduced 4T1, B16F10 and L cells
T4 sequence (looked up): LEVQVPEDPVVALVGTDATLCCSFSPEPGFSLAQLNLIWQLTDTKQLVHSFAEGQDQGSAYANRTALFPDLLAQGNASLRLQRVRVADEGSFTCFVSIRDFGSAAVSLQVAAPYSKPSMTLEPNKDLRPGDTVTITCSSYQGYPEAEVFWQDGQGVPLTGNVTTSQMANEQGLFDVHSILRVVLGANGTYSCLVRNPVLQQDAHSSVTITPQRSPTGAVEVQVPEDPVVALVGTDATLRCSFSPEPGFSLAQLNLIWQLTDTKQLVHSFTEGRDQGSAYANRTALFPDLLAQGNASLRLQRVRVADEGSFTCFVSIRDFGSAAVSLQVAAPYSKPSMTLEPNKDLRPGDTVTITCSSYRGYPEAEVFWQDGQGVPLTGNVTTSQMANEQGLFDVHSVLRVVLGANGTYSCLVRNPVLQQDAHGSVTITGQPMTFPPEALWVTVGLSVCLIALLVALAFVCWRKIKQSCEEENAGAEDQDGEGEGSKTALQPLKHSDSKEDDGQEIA
The assay is described as follows: live cell immunofluorescence microscopy on 4T1 cells transduced with human 4Ig-B7-H3, labeled antibody at 1 µg/mL.
Source text: Murine breast tumor, 4T1 cells (ATCC), were stably transduced with human 4Ig-B7-H3 or empty vector using lentiviral constructs.
(§3) Cells were washed and imaged by fluorescence microscopy (TiE, Nikon).

Assay [9] has as its target T5, Murine 2Ig-B7-H3 expressed on cells (mouse, UniProt Q8VE98 29-316).
T5 construct: whole, on cells; also called murine B7-H3 expressed on tumor cells; 2Ig-B7-H3 on Pan02 and 4T1 cells
T5 sequence (looked up): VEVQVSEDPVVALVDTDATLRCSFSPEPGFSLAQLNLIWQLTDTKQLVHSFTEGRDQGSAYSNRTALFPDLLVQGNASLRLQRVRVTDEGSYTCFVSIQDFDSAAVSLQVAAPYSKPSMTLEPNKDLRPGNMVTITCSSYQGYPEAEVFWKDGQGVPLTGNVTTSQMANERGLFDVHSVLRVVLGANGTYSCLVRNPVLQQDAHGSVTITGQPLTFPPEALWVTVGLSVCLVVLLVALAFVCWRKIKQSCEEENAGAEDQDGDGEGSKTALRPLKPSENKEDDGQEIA
Put plainly: live cell immunofluorescence microscopy on Pan02 cells, MIL33B-A594 at 100 µg/mL; one panel blocked with unlabeled MIL33B.
Source text: as §3

For assay [10], the target named is T5, Murine 2Ig-B7-H3 expressed on cells. The assay is described as follows: PET imaging in mice with 4T1 or B16F10 tumors carrying the negative (empty) vector, with endogenous murine 2Ig-B7-H3 only, 24 and 72 hr after injection.
Source text: (§4) Immune competent mice bearing subcutaneous 4T1 tumors expressing human 4Ig-B7-H3 or negative vector (see Western blots in FIG. 3) were utilized. […] Similarly, B16F10 cells were transduced with human 4Ig-B7-H3 or empty vector. These cells have less endogenous murine 2Ig-B7H3 than 4T1 tumors.
Assay [11] has as its target T4, Human 4Ig-B7-H3 expressed on cells. The assay is described as follows: in vivo PET of 89Zr-DFO-labeled antibody in mice bearing 4T1 or B16F10 tumors with human 4Ig-B7-H3 or vector control, %ID/cc of tumor VOIs at 24 and 72 hr.
Source text: as §4

TLR5 on HCT116 cells, sequence (O60602 21-858 limits assumed): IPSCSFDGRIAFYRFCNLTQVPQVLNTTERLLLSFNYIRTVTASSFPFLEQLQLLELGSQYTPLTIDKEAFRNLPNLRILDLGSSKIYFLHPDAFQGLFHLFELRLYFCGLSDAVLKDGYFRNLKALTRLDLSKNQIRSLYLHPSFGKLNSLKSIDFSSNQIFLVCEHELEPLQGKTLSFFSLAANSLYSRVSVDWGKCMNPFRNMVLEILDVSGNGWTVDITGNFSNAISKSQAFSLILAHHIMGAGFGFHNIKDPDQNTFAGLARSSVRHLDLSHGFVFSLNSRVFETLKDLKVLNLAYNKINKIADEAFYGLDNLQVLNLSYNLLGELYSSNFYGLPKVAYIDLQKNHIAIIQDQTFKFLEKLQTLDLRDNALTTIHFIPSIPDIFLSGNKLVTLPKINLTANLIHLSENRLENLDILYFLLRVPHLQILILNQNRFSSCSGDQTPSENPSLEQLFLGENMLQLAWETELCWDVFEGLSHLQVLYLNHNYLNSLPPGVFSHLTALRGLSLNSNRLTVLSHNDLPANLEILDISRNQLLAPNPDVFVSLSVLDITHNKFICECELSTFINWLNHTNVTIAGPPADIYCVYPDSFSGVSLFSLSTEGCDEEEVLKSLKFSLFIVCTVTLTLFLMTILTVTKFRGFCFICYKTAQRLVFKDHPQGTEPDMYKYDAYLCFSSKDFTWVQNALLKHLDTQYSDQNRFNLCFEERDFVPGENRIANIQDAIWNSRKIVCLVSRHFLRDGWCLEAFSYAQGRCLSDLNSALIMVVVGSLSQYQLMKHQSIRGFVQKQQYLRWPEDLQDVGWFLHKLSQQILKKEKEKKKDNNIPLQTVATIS

Purified flagellin (ligand) showed an activation of NF-kB (kB-RE5-IkBa-Fluc reporter in HCT116 cells) with TLR5 on HCT116 cells of 1.8 nM.

B1: MIL33B monoclonal antibody (antibody, IgG2a, V domains shown)
VH: EVQLQQSGPELVKPGASVKMSCKASGYTFTSYVMHWVRQSPGQGLEGIGYINSYSDGTKYNEKFKGKATLTSDKSSSTAYMELSGLTSEDSAVYYCARWGGLGNGAMDYWGQGTSVTVSS
VL: QIVLTQSPAIMSASPGEKVTMTCSVSSSVNYMHWYQQKSGTSPKRWIYDTSKLASGVPARFSASGSGTSYSLTISSMEAEDAATYYCQQWTSNPLTFGAGTKLELK
notes: Mouse hybridoma antibody from an NZBWF1/J mouse; constant regions are not; also called MIL33B mAb; MIL33B antibody
For the molecule B1, the “fold better binding than to other B7 family members” value in assay [1] was at least 1000 fold. Also, the “fold shift in Kd from human 4Ig-B7-H3 to murine 2Ig-B7-H3” value in assay [2] is around 100 fold. Moreover, the EC50 (read off the curve) (usually the concentration at which the effect is half-maximal) in assay [3] is around 0.1 nM. Also, the Kd – broadly, a measure of binding affinity in units of concentration – in assay [4] worked out at 0.58 nM; in assay [5], 0.0723 nM; in [6], 41.1 nM.

B2: Flagellin-conjugated MIL33B (other)
VH: EVQLQQSGPELVKPGASVKMSCKASGYTFTSYVMHWVRQSPGQGLEGIGYINSYSDGTKYNEKFKGKATLTSDKSSSTAYMELSGLTSEDSAVYYCARWGGLGNGAMDYWGQGTSVTVSS
VL: QIVLTQSPAIMSASPGEKVTMTCSVSSSVNYMHWYQQKSGTSPKRWIYDTSKLASGVPARFSASGSGTSYSLTISSMEAEDAATYYCQQWTSNPLTFGAGTKLELK
modifications: MIL33B (mouse IgG2a) is chemically conjugated to purified flagellin through a commercial linker kit. Attachment sites and the number of flagellins per antibody are not stated, and the letters cannot carry them.
notes: Chemical conjugate of MIL33B (mouse IgG2a) and flagellin; also called MIL33B-flgn conjugate; MIL33B-flagellin conjugate; not shown: Flagellin (purified, InvivoGen)
For the molecule B2, the EC50 (usually the concentration at which the effect is half-maximal) in [7] worked out at 36 nM.

B3: MIL33B labeled with Alexa594 fluorophore (antibody, V domains shown)
VH: EVQLQQSGPELVKPGASVKMSCKASGYTFTSYVMHWVRQSPGQGLEGIGYINSYSDGTKYNEKFKGKATLTSDKSSSTAYMELSGLTSEDSAVYYCARWGGLGNGAMDYWGQGTSVTVSS
VL: QIVLTQSPAIMSASPGEKVTMTCSVSSSVNYMHWYQQKSGTSPKRWIYDTSKLASGVPARFSASGSGTSYSLTISSMEAEDAATYYCQQWTSNPLTFGAGTKLELK
modifications: Alexa594 fluorophore on the antibody, residues not stated
notes: also called MIL33B-A594; Alexa594-labeled MIL33B
As for B3, the binding result in [8] and in assay [9] was “binds” throughout.

B4: MIL33B conjugated with DFO and radiolabeled with 89Zr (antibody, mouse IgG2a, V domains shown)
VH: EVQLQQSGPELVKPGASVKMSCKASGYTFTSYVMHWVRQSPGQGLEGIGYINSYSDGTKYNEKFKGKATLTSDKSSSTAYMELSGLTSEDSAVYYCARWGGLGNGAMDYWGQGTSVTVSS
VL: QIVLTQSPAIMSASPGEKVTMTCSVSSSVNYMHWYQQKSGTSPKRWIYDTSKLASGVPARFSASGSGTSYSLTISSMEAEDAATYYCQQWTSNPLTFGAGTKLELK
modifications: DFO chelator with 89Zr on the antibody, residues not stated
notes: also called MIL33B-DFO; radiolabeled MIL33B antibody
As to B4, the binding result in assay [10] and in [11] was “binds” each time.
